Results from US8663616B2, “Enzymatic peracid generation for use in oral care products” (E I du Pont de Nemours and Company, priority 2010, dated 2014).

Experiments:
[1] = Perhydrolase activity of enzyme bound to hydroxyapatite discs, ABTS (Example 7); type: biochemical; conditions: for Avg Absorbance Background subtract: background = no enzyme, no HAP (0.775); for Avg Absorbance at 5 min: discs incubated in 20 μM enzyme, 6 washes, 0.346% triacetin, 3.46 mM H2O2, A405; for PAA conc μM per disc: enzyme bound to hydroxyapatite disc, 5 min, no enzyme control 1.2
Protocol: (§1) The detection of peracetic acid followed the method described in Pinkernell et. al. (Analyst, 1997, 122, 567) using colorimetric detection of 2,2′-azino-bis(3-ethylbenzothiazoline(-6-sulfonate (ABTS) oxidation by peracetic acid. Following the formation of peracetic acid with the addition of triacetin and hydrogen peroxide, 90 μL of solution was added to 10 μL of 0.1 M H3PO4 in a well plate. 50 μL of 1 M acetic acid, 50 μL of 0.5 g/L ABTS and 50 μL of 0.002 g/L of KI was added. The solution was allowed to develop for 5 min. The absorbance of the solution was measured at 405 nm using a microplate reader. The peracetic acid concentration was calculated based on a standard curve developed simultaneously using peracetic acid reagent solution.
The perhydrolase activity of the fusions once bound to HAP discs surfaces was determined with the same ABTS method. Hydroxyapatite discs (HiMed Inc, Old Bethpage, N.Y.; 5 mm dia.×1.8 mm thick) were incubated in 20 μM enzyme solution (50 mM potassium phosphate buffer pH 7.2) for 60 min followed by 6 times of washes (50 mM potassium phosphate buffer pH 7.2). The discs with enzyme adsorbed were transferred to new wells and 200 μL of phosphate buffer (10 mM pH 7.2), 30 μL of 3% triacetin (final concentration of 0.346%) and 30 μL of 30 mM H2O2 (final concentration of 3.46 mM) were added. The solution was allowed to incubate at room temperature for 5 min. 90 μL of solution was pipetted to a new well containing 10 μL of 100 mM H3PO4. 50 μL of acetic acid, 50 μL KI, 50 μL ABTS were added as described above. The solution was developed for 5 min at room temperature and read at A405 nm.

[2] = Retention of perhydrolase on hydroxyapatite (SDS-PAGE band strength); type: binding; conditions: for Unbound (relative band strength): 10 μM enzyme, 0.5% hydroxyapatite, pH 7.2; for Unbound (relative band strength) / HAP Particles (relative band strength) / Wash1 (relative band strength) / Wash2 (relative band strength): relative to enzyme input = 1; for HAP Particles (relative band strength): enzyme retained on particles after washes
In short: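 Enzyme at 10 μM final was incubated 30 min with 0.5% hydroxyapatite nanoparticles in 10 mM phosphate pH 7.2, then centrifuged and washed three times. Input, wash supernatants and particles were run on SDS-PAGE with Coomassie-type staining; band strength scored relative to input (=1).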

[3] = Peracetic acid generated after each round of two-step whitening, ABTS (Example 17); type: biochemical, bovine; conditions: for PAA (ppm) generated after each round of whitening, Rd2: round 2; for PAA (ppm) generated after each round of whitening, Rd3: round 3; for PAA (ppm) generated after each round of whitening, Rd4: round 4; for PAA (ppm) generated after each round of whitening, Rd5: round 5; for PAA (ppm) generated after each round of whitening, Rd1: step 1 enzyme or buffer, step 2 triacetin/H2O2, round 1
Protocol: The samples were diluted 1:100 with 100 mM phosphate buffer and added to ABTS detection reagent as noted in Example 8. Each sample data point represents 2 repeats of independent enamel blocks.

[4] = Perhydrolase activity in solution, ABTS detection of peracetic acid (Example 7); type: biochemical; conditions: 10 μL of 0.625 μg/mL enzyme, triacetin, H2O2, pH 7.2, 5 min
Protocol: as §1
The enzyme activity in solution was measured by making a solution of 0.625 μg/mL of each enzyme in 50 mM phosphate buffer, pH 7.2. 10 μL of enzyme solution was mixed with 90 μL buffer, 30 μL of 3% triacetin in water, 30 μL of 30 mM H2O2. The solution was incubated for 5 min. A 90 μL aliquot was removed for detection via ABTS oxidation as noted above.

[5] = T. maritima C277S/C277T constructs, peracetic acid when bound to bovine enamel (Example 11); type: biochemical; conditions: bovine enamel exposed to 10 μM enzyme, 4 washes; 100 mM triacetin, 100 mM H2O2, 30 min, 37° C.; no enzyme 570
Protocol: as §1
The perhydrolase enzymes were also assessed for binding to bovine enamel substrates. Enamel substrates were prepared as described in Example 2 and 3. Each enamel block was hydrated in water for overnight at room temperature (˜22° C.). The enamel blocks were then equilibrated with 10 mM potassium phosphate buffer, pH7.2, for 10 min. The enamel substrates were rinsed 3 times the buffer. The enamel wells were filled with 500 μL of 10 μM enzyme solutions which was prepared by diluting in 10 mM phosphate buffer. The samples were incubated for 30 min with slow shaking at 37° C. The non-binding enzyme was removed by washing 4 times with phosphate buffer. Then, each enamel block was embedded inside a putty filled 24-well plate, with only the enamel top surface exposed. The perhydrolase activity from enamel bound enzyme was measured as described in Example 8. 100 μL reaction mixtures (100 mM phosphate buffer, pH7.2 and 100 mM H2O2 and 100 mM triacetin) was added on top of the enamel and incubated for 30 min at 37° C. A 90 μL aliquot was removed for detection via ABTS oxidation as noted in Example 8. Each sample data point represents an average of 3 independent enamel blocks.

[6] = Maximum peracetic acid by targeted and untargeted CE-7 perhydrolase with propylene glycol diacetate; type: biochemical; conditions: substrate propylene glycol diacetate; same reaction conditions as Table 20
Protocol: These ester substrates were tested for peracetic acid production using a targeted C277S perhydrolase variant, EZ-7 under the same reaction conditions used to generate date for Table 20. Peracetic acid production using propylene glycol diacetate or sucrose octaacetate with the EZ-7 perhydrolase system is shown in Table 21.

[7] = T. maritima C277S/C277T constructs, peracetic acid in solution (Example 11); type: biochemical; conditions: 0.5 μM enzyme, 100 mM triacetin, 100 mM H2O2, pH 7.2, 10 min, 37° C.; no enzyme 114
Protocol: as §1
Perhydrolase enzymes listed in Table 5 were assessed for enzyme activity in solution as described in Example 7. The enzyme activity in solution was measured by making a 500 μl solution of 0.5 μM of each enzyme in 100 mM triacetin, 100 mM H2O2 and 10 mM phosphate buffer, pH 7.2. The solution was incubated for 10 min, at 37° C. After the reaction was stopped by mixing an aliquot with H3PO4, a 10 μL aliquot was removed for proper dilution, and then detected via ABTS oxidation as described in Example 7.

Row | Molecule | Avg Absorbance Background subtract [1] | Avg Absorbance at 5 min [1] | PAA conc μM per disc [1] [μM per disc] | Unbound (relative band strength) [2] | binding to / retention on hydroxyapatite (in words) ([2]; after washes) | HAP Particles (relative band strength) [2] | Wash1 (relative band strength) [2] | Wash2 (relative band strength) [2] | PAA (ppm) generated after each round of whitening, Rd2 [3] [ppm] | PAA (ppm) generated after each round of whitening, Rd3 [3] [ppm] | PAA (ppm) generated after each round of whitening, Rd4 [3] [ppm] | PAA (ppm) generated after each round of whitening, Rd5 [3] [ppm] | PAA (ppm) generated after each round of whitening, Rd1 [3] [ppm] | Avg Absorbance 405 nm Background subtracted [4] | Peracetic acid (ppm) On Enamel [5] [ppm] | Maximum Peracetic Acid (ppm), Propylene glycol diacetate [6] [ppm] | Peracetic acid (ppm) In Solution [7] [ppm] | activity when bound to hydroxyapatite (in words) ([1]; with addition of triacetin and hydrogen peroxide)
1 | EZ-1: Thermotoga maritima acetyl xylan esterase variant C277S, untargeted perhydrolase, SEQ ID NO: 424 (protein, listed as Thermotoga maritima) MAFFDLPLEELKKYRPERYEEKDFDEFWEETLAESEKFPLDPVFERMESHLKTVEAYDVTFSGYRGQRIKGWLLVPKLEEEKLPCVVQYIGYNGGRGFPHDWLFWPSMGYICFVMDTRGQGSGWLKGDTPDYPEGPVDPQYPGFMTRGILDPRTYYYRRVFTDAVRAVEAAASFPQVDQERIVIAGGSQGGGIALAVSALSKKAKALLCDVPFLCHFRRAVQLVDTHPYAEITNFLKTHRDKEEIVFRTLSYFDGVNFAARAKIPALFSVGLMDNISPPSTVFAAYNYYAGPKEIRIYPYNNHEGGGSFQAVEQVKFLKKLFEKG | 0.126 | 0.901 | 3.5 | 0.98 | does not bind to hydroxyapatite | 0.01 | 0.01 | 0.0 | 41.0 | 30.2 | 39.3 | 47.1 | 33.2 | 1.830 | 628 | 2165 | 4270 | –
2 | EZ-7: C277S-link1-DenP308-H6, SEQ ID NO: 429 (protein) MAFFDLPLEELKKYRPERYEEKDFDEFWEETLAESEKFPLDPVFERMESHLKTVEAYDVTFSGYRGQRIKGWLLVPKLEEEKLPCVVQYIGYNGGRGFPHDWLFWPSMGYICFVMDTRGQGSGWLKGDTPDYPEGPVDPQYPGFMTRGILDPRTYYYRRVFTDAVRAVEAAASFPQVDQERIVIAGGSQGGGIALAVSALSKKAKALLCDVPFLCHFRRAVQLVDTHPYAEITNFLKTHRDKEEIVFRTLSYFDGVNFAARAKIPALFSVGLMDNISPPSTVFAAYNYYAGPKEIRIYPYNNHEGGGSFQAVEQVKFLKKLFEKGGPGSGGAGSPGSAGGPGSTKPPRTPTANTSRPHHNFGSGGGGSPHHHHHH | 1.450 | 1.45 | 23.5 | 0.5 | – | 0.5 | 0.01 | 0.0 | 496.7 | 716.5 | 998.5 | 1224.5 | 383.5 | 1.619 | 1040 | 2109 | 5519 | active enzymes when bound to hydroxyapatite
